Test results published in FireProtDB (doi:10.1021/bi00067a022).

B1: Ribonuclease, P00648 (parent)
chain: MMKMEGIALKKRLSWISVCLLVLVSAAGMLFSTAAKTETSSHKAHTEAQVINTFDGVADYLQTYHKLPDNYITKSEAQALGWVASKGNLADVAPGKSIGGDIFSNREGKLPGKSGRTWREADINYTSGFRNSDRILYSSDWLIYKTTDHYQTFTKIR

Variants of: B1
Settings: Bacillus amyloliquefaciens, pH 6.3, 25 °C, Fluorescence, MES 450 mM, reversible: yes, structure 1BNI, whole UniProt chain shown

Row | Variant | ddG of mutation (higher = less stable) (Urea) [kcal/mol] | denaturant m value (Urea) [kcal/mol/M] | denaturant midpoint (higher = more stable) (Urea) [M] | unfolding free energy (Urea) [kcal/mol] | ddG of mutation (higher = less stable) (GdnHCl) [kcal/mol] | denaturant m value (GdnHCl) [kcal/mol/M] | denaturant midpoint (higher = more stable) (GdnHCl) [M] | unfolding free energy (GdnHCl) [kcal/mol]
1 | A90C S127C | -1.21 | 1.73 | 5.77 | 10 | – | – | – | –
2 | S132C H149C | – | – | – | – | -4.1 | 4.3 | 3 | 12.9
